This is an account of results in article PMC7069228, “Targeted cell imaging properties of a deep red luminescent iridium(III) complex conjugated with a c-Myc signal peptide” (Chemical Science, 2020).

Data set [1] can be described thus: Freeze-thaw stability of DMSO stock solutions. The data set is classed as physicochemical. The settings on record: 10 mM stock in DMSO stored at –20 °C.
Data set [2] deals with Human fibroblasts. Description: Resazurin cell viability / metabolic activity assay. The data set is classed as cell-based. The protocol: Fig. 3 Ir-PYR is cytotoxic at 20 μM and above. Human fibroblasts were incubated with various concentrations (0 or DMSO only, 5, 20, 50, 80, 100 μM) of either Ir-CMYC (A) or Ir-PYR (B) for 18 hours. Resazurin was added to cells, and after a 4 hour incubation the relative fluorescence intensity was measured (λex = 530 nm; λem = 580 nm). Ir-PYR treated cells (>20 μM) show reduced conversion of resazurin to the fluorescent resorufin indicating reduced cell viability.
Human derived skin fibroblast cells lines were obtained from the Coriell Cell Repository (GM05399, Camden, NJ). […]
Human fibroblasts were plated at 10 000 cells per well of a 96-well plate (Cellbind) and treated with the indicated concentrations of Ir-PYR, Ir-CMYC or DMSO. […] After a 4 hour incubation at 37 °C, fluorescence was determined using a Molecular Devices Spectramax Gemini EM plate reader (λex = […]; λem = 585 nm).
Human fibroblasts were plated at 10 000 cells per well of a 96-well plate and treated with the various concentrations of Ir-PYR, Ir-CMYC (5, 20, 80, 50, 100 μM) or the highest volume of equivalent of DMSO only. […] After a 4 hour incubation at 37 °C, fluorescence was determined using a Molecular Devices Spectramax Gemini EM plate reader (λex = 530 nm; λem = 580 nm).
(Alamar Blue is a resazurin reagent that responds to reducing activity.)

The test system of data set [3] is fish sperm DNA. The experiment in a line: Circular dichroism / UV-vis titration with fish sperm DNA (multiple independent binding sites model). The settings on record: Table S1; buffer 25 mM MOPS, 50 mM NaCl, 1 mM EDTA, 25 °C; n restricted to 3 base pairs. The protocol: In view of the nuclear localisation of Ir-CMYC, we also considered the potential role that affinity to DNA may play. To explore DNA binding of these Ir(III) complexes, UV-vis and circular dichroism titrations were carried out in buffer (25 mM MOPS, 50 mM NaCl, 1 mM EDTA) at 25 °C (Fig. S6, ESI ^†). To quantify the affinity of Ir-PYR for fish sperm DNA, titration curves at 400 and 493 nm were extracted from the circular dichroism data (Fig. 6). Similarly, for Ir-CMYC, titration curves at 373 and 493 nm were extracted from the circular dichroism data. The binding data were analysed globally (Table S1 ^†) in terms of the multiple independent binding sites model, explicitly taking into account the dilution of the iridium complex during the titration.[28] […]
MOPS buffer was prepared by dissolving MOPS (3-(N-morpholino)propanesulfonic acid, CAS[1132-61-2]), NaCl, and EDTA (ethylenediaminetetraacetic acid disodium salt dihydrate, CAS[6381-92-6]) (all obtained from Fisher and used as supplied) in deionised water (Elga Purelab Flex), adjusting the pH to 7.0 using a NaOH solution (pH of the buffer was determined using a Hanna Instruments pH210 microprocessor pH meter with a VWR simple junction universal combined pH/reference electrode) and making up the solution to 0.5 litre. […]

The test system of data set [4] is human fibroblast cells. Description: Immunocytochemistry with cell membrane permeabilisation (retention of red emission). The data set is classed as cell-based. As to conditions: fluorescence microscopy imaging. From the text: To investigate whether the NLS was cleaved off Ir-CMYC prior to translocation to the nucleus, an immunoassay was trialled using an antibody raised against c-Myc.

Data set [5] can be described thus: Longer term stability in water by UV-vis absorption spectra. Format: physicochemical. The protocol: Our previous studies on Ir(III) complexes have shown that the use of substituted, cyclometalated quinoxaline ligands can impart red luminescence characteristics.[25] Firstly, the UV-vis absorption and emission spectral characteristics of Ir-PYR were determined. […] By inference, ligand-centred transitions are assumed to dominate below 350 nm, with both quinoxaline and bipyridine located π → π* contributing to the spectrum. At 350–450 nm it is likely that spin-allowed metal-to-ligand (5d-to-π*) charge transfers (^1MLCT) are present, with a weaker (ε < 1000 M^–1 cm^–1) shoulder feature at 450–600 nm, which is presumably due to a spin forbidden (S0 → T1) ^3MLCT absorption. […] To assess longer term stability in water, UV-vis absorption spectra of an aqueous solution (stored at 25 °C in light) of Ir-CMYC were recorded at 0, 24, 48 and 72 h (Fig. S4, ESI ^†).

Data set [6] deals with human fibroblast cells. Description: Confocal fluorescence microscopy: cell uptake and localisation. Format: cell-based. The settings on record: human fibroblasts. The method, then:
The non-peptide functionalised complex Ir-PYR was investigated at a range of concentrations (1, 5, 20, 50, 80, 100 μM) with respect to cell uptake, localization and bioimaging capability. Human fibroblast cells were incubated with the different concentration solutions of Ir-PYR and imaged after 18 hours using confocal fluorescence microscopy. With long wavelength excitation and emission parameters (λex = 480 nm; λem = 645 nm) compatible with the spectral properties of the complex, it was clearly evident (Fig. 2) that the deep red emission of Ir-PYR was highly amenable to confocal fluorescence microscopy.
Human derived skin fibroblast cells lines were obtained from the Coriell Cell Repository (GM05399, Camden, NJ). Cells were cultured as monolayers in Dulbecco's modified Eagles medium (DMEM, Sigma, UK) supplemented with 10% fetal bovine serum (FBS, PAN-Biotech, Aidenbach, Germany) and 1% L-glutamine in a humidified incubator with 5% CO2 at 37 °C. For all imaging experiments low passage cells (P10-15) were seeded in 8-well chamber slides (Thistle, IB-80826) at a density of 15 000 cells in 250 μL of media.
Stock solutions were diluted to the stated concentrations in cell culture medium for incubation with fibroblasts. The equivalent amount of DMSO (<0.5% total volume) was added to controls for comparison. For nuclear visualisation cells were counterstained for 10 minutes with Hoechst 33342 diluted in cell culture media (1 μL mL^–1, Thermo Fisher, UK). For non-live imaging, cells were fixed in cold 4% paraformaldehyde for 10 min at room temperature and rinsed with PBS. For live-cell colocalization studies, cells were incubated with Ir-PYR for 12 hours prior to counterstaining with Hoechst 33342, and either LysoTracker-green DND-26 (L7528, Thermo Fisher, UK), or CYTO-ID Autophagy detection kit 2.0 (175–0050, Enzo Life Sciences, UK), as per the manufacturer's instructions. Briefly, LysoTracker was diluted in cell culture media to a final concentration of 200 nM and left for 15 min at 37 °C. […]

Entries after “also recorded” stand apart in the source; their conditions may differ.

On to “PAAKRVKLD [Ir-CMYC, NLS peptide … functionalised at N-terminus with cyclometalated iridium(III) quinoxaline/bipyridine complex]”, for which, in data set [1], the “effect of 3 freeze–thaw cycles on compound signal” value is on record as “did not appear to reduce the compound signal”. Further, the “cytotoxicity” value in data set [2] (5–100 μM, 18 h incubation, resazurin) is on record as “No cytotoxicity was observed; also recorded: essentially non-toxic”. For the same sequence, the “toxicity: changes in cellular morphology or mitochondrial activity” value in data set [2] (24 hours after incubation, resazurin cell death assay) is recorded as “no (or minimal) toxicity”. For the same sequence, the “K (fitted equilibrium constant, binding to FS DNA)” value in data set [3] was 4.5 ± 1.0 103 M-1. Moreover, the “red emission in cells after immunocytochemistry procedure which permeabilises the cell membrane” value in data set [4] was “no longer evident”. In addition, in data set [5] (aqueous solution stored at 25 °C in light, read-out UV-vis absorption), the “UV-vis absorption spectra at 0, 24, 48 and 72 h (chemical stability in water)” value is recorded as “superimposable”. For the same sequence, in data set [5] (inferred from superimposable UV-vis spectra of aqueous solution over 72 h, 25 °C), the “solubility in water” value is given as “excellent solubility”. For the same sequence, the “uptake / staining at 1–5 μM” value in data set [6] (1–5 μM, 18 h, confocal microscopy) was “No uptake or staining”. Also, the “concentration giving good cell uptake and nuclear localisation” value in data set [6] (18–24 h incubation, confocal, co-localisation with Hoechst 33342, n = 2) fell in the range of 80 to 100 µM. For the same sequence, the “staining at 20–50 μM” value in data set [6] (20–50 μM, 18 h, confocal microscopy) is given as “weak punctate staining”.
